Patent US20070142318A1, “Compositions, methods and kits for repressing virulence in gram positive bacteria” (priority 2004, published 2007)
Like-named read-outs stand apart in the source and are kept apart here.

Legend:
[1] = target: T1, CodY (Bacillus subtilis, UniProt P39779); conditions: cited from earlier work
T1 sequence (P39779 1-259): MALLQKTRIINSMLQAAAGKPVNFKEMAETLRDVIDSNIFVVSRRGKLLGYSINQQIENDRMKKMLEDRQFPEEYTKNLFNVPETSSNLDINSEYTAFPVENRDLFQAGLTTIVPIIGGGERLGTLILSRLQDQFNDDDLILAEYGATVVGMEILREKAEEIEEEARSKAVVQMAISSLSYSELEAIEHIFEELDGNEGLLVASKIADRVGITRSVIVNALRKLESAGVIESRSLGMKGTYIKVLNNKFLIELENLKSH

[2] = target: T1, CodY; conditions: cited from earlier work; remark: listed apart in the source
[3] = target: T1, CodY; assay: Gel shift assay, stimulation of CodY binding to target DNA by effectors; set-up: species or system B. subtilis; conditions: for stimulation of CodY binding to new target genes and dpp promoter region: amino acids 10-30 mM
Method: A test of whether BCAAs have any direct effect on CodY activity was performed. […] In all cases, the apparent dissociation constant for binding was substantially below the concentration of CodY inside the cell (4 μM, see below). […] By regulating gene expression in response to both the GTP level and the availability of certain amino acids, CodY can insure that the cell responds in a coherent way to many types of nutritional stress.
The effects of GTP and BCAAs at different CodY targets can vary. At several target sites, BCAAs and GTP were each found to have small stimulatory effects on binding (in a gel shift assay), but the mixture strongly stimulates (FIG. 1). […] Some genes may respond to CodY in its GTP-bound conformation, other genes to CodY in its BCAA-bound conformation, and still other genes to CodY bound to both kinds of effectors. These variations could reflect differences in specificity of binding or differences in affinity of binding.
The concentration dependence of stimulation of DNA binding by effectors is assessed. At the dpp promoter, GTP at 600 μM increased the fraction of DNA that was bound by a constant concentration of CodY (in a gel shift assay) from 10% to 50%. Titration assays of this type, using varying concentrations of GTP, isoleucine, and valine, provide a measure of the effective concentrations of each of these effectors.

[4] = system: wild-type cells; conditions: excess nutrients; cited from earlier work
[5] = system: ilvB promoter lacZ fusions; conditions: GTP limitation by addition of decoyinine; cited from earlier work
[6] = system: CodY (Staphylococcus aureus); assay: EMSA; conditions: concentration giving shift; 2 mM GTP + 10 mM each Ile, Val, Leu
[7] = system: CodY A207D A207D (Bacillus subtilis); assay: EMSA; conditions: GTP + ILV; also >500 without effectors
[8] = system: CodY (Bacillus subtilis); assay: EMSA; conditions: 2 mM GTP + 10 mM each Ile, Leu, Val; 150 nM without effectors
[9] = system: CodY R214E R214E (Bacillus subtilis); assay: EMSA; conditions: GTP + ILV; also >500 without effectors
[10] = system: CodY S215T S215T (Bacillus subtilis); assay: EMSA
[11] = system: dpp-lacZ; assay: dpp-lacZ expression in vivo (β-galactosidase); conditions: for β-galactosidase expression (Miller units) in mid-exponential cells: dpp-lacZ; for derepression of expression in vivo: versus wild type
[12] = target: dpp promoter region; assay: Gel mobility shift assay of CodY binding to the dpp promoter region; conditions: CodY concentration that shifted 50% of the DNA
[13] = read-out: Estimated KD (nM), +GTP, ILV, GTP (2 mM) and isoleucine, valine and leucine (10 mM each)
[14] = read-out: Estimated KD (nM), No effectors

Nc1nc2c(ncn2[C@@H]2O[C@H](COP(=O)(O)OP(=O)(O)OP(=O)(O)O)[C@@H](O)[C@H]2O)c(=O)[nH]1 [GTP, guanosine triphosphate]
repression of dpp transcription by CodY ([1]; 300 μM GTP (typical of early stationary phase cells)): almost no repression | inhibition of dpp transcription by CodY ([1]; 2 mM GTP): ~80% | EC50 ([1]; read-out: GTP concentration giving 50% repression of transcription from the dpp promoter): ~1500 µM | binding to CodY compared with ATP, CTP or UTP [2]: more avidly | fraction of DNA bound by a constant concentration of CodY ([3]; dpp promoter, GTP at 600 μM, 10% without): 50% | effect on CodY binding at the yhdG regulatory region ([3]; yhdG regulatory region, alone or in combination): only a small effect

C=C1O[C@@](CO)(n2cnc3c(N)ncnc32)[C@H](O)[C@@H]1O [decoyinine]
sporulation of wild-type cells [4]: failed to sporulate efficiently unless decoyinine was added | induction of ilvB-lacZ fusions with or without T-box [5]: induced both fusions

nuc promoter region
binding [6]: 160 nM

CC[C@H](C)[C@H](N)C(=O)O [isoleucine]
stimulation of CodY binding to new target genes and dpp promoter region [3]: stimulated significantly

hla promoter region
binding [6]: 160 nM

CC(C)[C@H](N)C(=O)O [valine]
stimulation of CodY binding to new target genes and dpp promoter region [3]: stimulated significantly

dpp promoter region
Kd [7]: > 0.5 µM | Kd [8]: 0.02 µM | Kd [9]: > 0.5 µM | Kd [10]: > 0.5 µM

CC(C)C[C@H](N)C(=O)O [leucine]
stimulation of CodY binding to new target genes and dpp promoter region [3]: not

B1: A207D (protein, UniProt P39779 2-259, looked up, variant A207D)
Global transcriptional …: ALLQKTRIINSMLQAAAGKPVNFKEMAETLRDVIDSNIFVVSRRGKLLGYSINQQIENDRMKKMLEDRQFPEEYTKNLFNVPETSSNLDINSEYTAFPVENRDLFQAGLTTIVPIIGGGERLGTLILSRLQDQFNDDDLILAEYGATVVGMEILREKAEEIEEEARSKAVVQMAISSLSYSELEAIEHIFEELDGNEGLLVASKIDDRVGITRSVIVNALRKLESAGVIESRSLGMKGTYIKVLNNKFLIELENLKSH
derepression in vivo [11]: severe derepression | β-galactosidase expression (Miller units) in mid-exponential cells [11]: 130 Miller units | Kd [12, 13]: > 500 nM | Kd [12, 14]: > 500 nM

B2: S215F (protein, UniProt P39779 2-259, looked up, variant S215F)
Global transcriptional …: ALLQKTRIINSMLQAAAGKPVNFKEMAETLRDVIDSNIFVVSRRGKLLGYSINQQIENDRMKKMLEDRQFPEEYTKNLFNVPETSSNLDINSEYTAFPVENRDLFQAGLTTIVPIIGGGERLGTLILSRLQDQFNDDDLILAEYGATVVGMEILREKAEEIEEEARSKAVVQMAISSLSYSELEAIEHIFEELDGNEGLLVASKIADRVGITRFVIVNALRKLESAGVIESRSLGMKGTYIKVLNNKFLIELENLKSH
derepression in vivo [11]: severe derepression | β-galactosidase expression (Miller units) in mid-exponential cells [11]: 12 Miller units | Kd [12, 13]: 350 to 400 nM

B3: V218D (protein, UniProt P39779 2-259, looked up, variant V218D)
Global transcriptional …: ALLQKTRIINSMLQAAAGKPVNFKEMAETLRDVIDSNIFVVSRRGKLLGYSINQQIENDRMKKMLEDRQFPEEYTKNLFNVPETSSNLDINSEYTAFPVENRDLFQAGLTTIVPIIGGGERLGTLILSRLQDQFNDDDLILAEYGATVVGMEILREKAEEIEEEARSKAVVQMAISSLSYSELEAIEHIFEELDGNEGLLVASKIADRVGITRSVIDNALRKLESAGVIESRSLGMKGTYIKVLNNKFLIELENLKSH
derepression in vivo [11]: severe derepression | β-galactosidase expression (Miller units) in mid-exponential cells [11]: 14 Miller units | Kd [12, 13]: 150 to 200 nM

B4: S215T (protein, UniProt P39779 2-259, looked up, variant S215T)
Global transcriptional …: ALLQKTRIINSMLQAAAGKPVNFKEMAETLRDVIDSNIFVVSRRGKLLGYSINQQIENDRMKKMLEDRQFPEEYTKNLFNVPETSSNLDINSEYTAFPVENRDLFQAGLTTIVPIIGGGERLGTLILSRLQDQFNDDDLILAEYGATVVGMEILREKAEEIEEEARSKAVVQMAISSLSYSELEAIEHIFEELDGNEGLLVASKIADRVGITRTVIVNALRKLESAGVIESRSLGMKGTYIKVLNNKFLIELENLKSH
β-galactosidase expression (Miller units) in mid-exponential cells [11]: 150 Miller units | derepression of expression in vivo [11]: 2 fold | Kd [12, 13]: > 500 nM

B5: WT: wild-type B. subtilis CodY, a GTP-activated repressor protein (protein)
chain: ALLQKTRIINSMLQAAAGKPVNFKEMAETLRDVIDSNIFVVSRRGKLLGYSINQQIENDRMKKMLEDRQFPEEYTKNLFNVPETSSNLDINSEYTAFPVENRDLFQAGLTTIVPIIGGGERLGTLILSRLQDQFNDDDLILAEYGATVVGMEILREKAEEIEEEARSKAVVQMAISSLSYSELEAIEHIFEELDGNEGLLVASKIADRVGITRSVIVNALRKLESAGVIESRSLGMKGTYIKVLNNKFLIELENLKSH
β-galactosidase expression (Miller units) in mid-exponential cells [11]: 6 Miller units | Kd [12, 13]: 20 nM | Kd [12, 14]: 150 nM

B6: R214K (protein, UniProt P39779 2-259, looked up, variant R214K)
Global transcriptional …: ALLQKTRIINSMLQAAAGKPVNFKEMAETLRDVIDSNIFVVSRRGKLLGYSINQQIENDRMKKMLEDRQFPEEYTKNLFNVPETSSNLDINSEYTAFPVENRDLFQAGLTTIVPIIGGGERLGTLILSRLQDQFNDDDLILAEYGATVVGMEILREKAEEIEEEARSKAVVQMAISSLSYSELEAIEHIFEELDGNEGLLVASKIADRVGITKSVIVNALRKLESAGVIESRSLGMKGTYIKVLNNKFLIELENLKSH
derepression of expression in vivo [11]: 2 fold

B7: R214E (protein, UniProt P39779 2-259, looked up, variant R214E)
Global transcriptional …: ALLQKTRIINSMLQAAAGKPVNFKEMAETLRDVIDSNIFVVSRRGKLLGYSINQQIENDRMKKMLEDRQFPEEYTKNLFNVPETSSNLDINSEYTAFPVENRDLFQAGLTTIVPIIGGGERLGTLILSRLQDQFNDDDLILAEYGATVVGMEILREKAEEIEEEARSKAVVQMAISSLSYSELEAIEHIFEELDGNEGLLVASKIADRVGITESVIVNALRKLESAGVIESRSLGMKGTYIKVLNNKFLIELENLKSH
derepression in vivo [11]: severe derepression | β-galactosidase expression (Miller units) in mid-exponential cells [11]: 94 Miller units | Kd [12, 13]: > 500 nM | Kd [12, 14]: > 500 nM

B8: V218A (protein, UniProt P39779 2-259, looked up, variant V218A)
Global transcriptional …: ALLQKTRIINSMLQAAAGKPVNFKEMAETLRDVIDSNIFVVSRRGKLLGYSINQQIENDRMKKMLEDRQFPEEYTKNLFNVPETSSNLDINSEYTAFPVENRDLFQAGLTTIVPIIGGGERLGTLILSRLQDQFNDDDLILAEYGATVVGMEILREKAEEIEEEARSKAVVQMAISSLSYSELEAIEHIFEELDGNEGLLVASKIADRVGITRSVIANALRKLESAGVIESRSLGMKGTYIKVLNNKFLIELENLKSH
Kd [12, 13]: 100 to 200 nM | Kd [12, 14]: 250 to 500 nM
